From article PMC10280071, “Allelic variation in the indoleacetic acid-lysine synthase gene of the bacterial pathogen Pseudomonas savastanoi and its role in auxin production” (Frontiers in Plant Science, 2023) come the findings set out here.

One series deals with T1, IaaLPsf-3.
T1 construct: wild-type full-length ORF in pET28a, His6-tagged (C-terminal in methods, N-terminal in results), tag not cut, E. coli BL21
Description: coupled continuous spectrophotometric assay of AMP formation (myokinase/pyruvate kinase/lactate dehydrogenase, NADH at […] nm). The class given is biochemical, Pseudomonas savastanoi. Particulars: 1 mM ATP, 3 mM MgCl2, 100 mM KCl, 50 mM Tris-HCl pH 8.0, 25 °C.

A further series has as its system O=C(O)Cc1c[nH]c2ccccc12. Description: purified protein. Particulars: 5 mM lysine fixed, IAA 0.05-10 mM, 1 mM ATP, 3 mM MgCl2, 100 mM KCl, 50 mM Tris-HCl pH 8.0, 25 °C.

For orientation: Km means the concentration of substrate that gives half-maximal velocity. With `O=C(O)Cc1c[nH]c2ccccc12` [IAA], the Km in the series with IaaLPsf-3 (5 mM lysine fixed, IAA 0.05-10 mM) is 836 ± 142 µM. Usually Vmax stands for the top rate of the reaction or transport when substrate is in excess. For “IaaLPsn-1 (Pseudomonas savastanoi pv. nerii)”, in the series on O=C(O)Cc1c[nH]c2ccccc12, the Km is 617 ± 158 µM, the Vmax came to 0.0106 µmol/min/mg and the Vmax/Km was determined as 17.2 µL/min/mg. On to `NCCCC[C@H](N)C(=O)O` [Lys], for which the Michaelis constant (Km) with IaaLPsf-3 (1 mM IAA fixed, lysine 0.01-10 mM) came to 320 ± 45 µM.
